Test results taken from PMC3744807.

Molecular target: PARP-1 F1+F2 (UniProt P09874 1-214)
Test: pull-down

PARP-1 F1+F2, sequence (P09874 1-214): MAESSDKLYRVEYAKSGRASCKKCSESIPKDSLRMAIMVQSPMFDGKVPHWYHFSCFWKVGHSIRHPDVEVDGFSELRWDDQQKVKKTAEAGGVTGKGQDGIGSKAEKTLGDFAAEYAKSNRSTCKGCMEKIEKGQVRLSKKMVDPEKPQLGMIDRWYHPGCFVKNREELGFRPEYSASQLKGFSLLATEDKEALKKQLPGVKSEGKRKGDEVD

B1: 15 bp duplex, biotinylated (dsDNA)
DNA 1: ACTGCGTTTATGTAT
DNA 2: ATACATAAACGCAGT
binding result: binds
